B1: Phage-3923 (peptide)
peptide: IEAQCRPVWMCHGF
B2: Phage-3914 (peptide)
peptide: FGVKCEPRWMCNGF
B3: Phage-3913 (peptide)
peptide: QNFHCVPQWMCDWL
B4: Phage-3924 (peptide)
peptide: YNQYCTPLWMCEGF
B5: Phage-3920 (peptide)
peptide: AQVLCVPNWMCTGF
B6: Phage-3922 (peptide)
peptide: GAYTCVPAWMCQGF
B7: Phage-3917 (peptide)
peptide: DRVLCTPTWMCEGF
B8: Phage-3918 (peptide)
peptide: AQKLCEPMWMCVGF
B9: Phage-3921 (peptide)
peptide: GQIMCIPTWMCSGF
B10: Phage-3912 (peptide)
peptide: ATVRCMPMWMCHGF
B11: Phage-3919 (peptide)
peptide: MSPMCSPSWMCMGF
B12: Phage-3915 (peptide)
peptide: YQMLCVPEWMCSGL
B13: Phage-3916 (peptide)
peptide: STTLCRPAWMCTGM
B14: Phage-3954 (peptide)
peptide: FFQVCEPQWMCLGF
notes: tested as crude clonal phage supernatant
B15: Phage-3955 (peptide)
peptide: YERVCVPSWMCNSL
notes: as for B14
B16: Phage-3953 (peptide)
peptide: GLPQCVPPWMCDGF
notes: as for B14
B17: Phage-3948 (peptide)
peptide: LTVYCTPEWMCSGW
B18: Phage-3945 (peptide)
peptide: DSLVCQPRWMCVGF
B19: Phage-3943 (peptide)
peptide: DQVMCIPRWMCEGF
B20: Phage-3944 (peptide)
peptide: EFRECRPPWMCQGL
B21: Phage-3940 (peptide)
peptide: PLTSCVPQWMCYGF
B22: Phage-3947 (peptide)
peptide: TQVKCIPLWMCDGF
B23: Phage-3946 (peptide)
peptide: STMSCVPSWMCLGF
B24: Phage-3950 (peptide)
peptide: ILPRCEPYWMCTGL
B25: Phage-3941 (peptide)
peptide: LVRMCQPPWMCDGF
B26: Phage-3951 (peptide)
peptide: TVRSCTPPWMCEGF
B27: Phage-3939 (peptide)
peptide: YARECIPQWMCGGF
B28: Phage-3942 (peptide)
peptide: GDIQCRPLWMCDGL
B29: Phage-3949 (peptide)
peptide: GWVGCVPLWMCEGF
B30: Phage-3952 (peptide)
peptide: AVHMCAPSWMCSGF
B31: Phage-3935 (Peptide-180 library clone) (peptide)
peptide: PGFWCQPKWMCEGF
notes: Tested as clonal phage supernatant; not shown: fused to the pIII filament protein of the bacteriophage
B32: Phage-3936 (Peptide-180 library clone) (peptide)
peptide: WVRLCQPAWMCTGL
notes: as for B31
B33: Phage-3933 (Peptide-180 library clone) (peptide)
peptide: YTQACTPSWMCHGF
notes: as for B31
B34: Phage-3929 (Peptide-180 library clone) (peptide)
peptide: TWSICEPRWMCEGF
notes: as for B31
B35: Phage-3926 (Peptide-180 library clone) (peptide)
peptide: VERFCEPAWMCIGL
notes: as for B31
B36: Phage-3938 (Peptide-180 library clone) (peptide)
peptide: MQDFCKPLWMCSGF
notes: as for B31
B37: Phage-3931 (Peptide-180 library clone) (peptide)
peptide: PTIMCIPVWMCQAF
notes: as for B31
B38: Phage-3934 (Peptide-180 library clone) (peptide)
peptide: DIVECRPRWMCDGF
notes: as for B31
B39: Phage-3930 (Peptide-180 library clone) (peptide)
peptide: QLLRCVPPWMCEGF
notes: as for B31
B40: Phage-3932 (Peptide-180 library clone) (peptide)
peptide: LNVECVPQWMCDGF
notes: as for B31
B41: Phage-3925 (Peptide-180 library clone) (peptide)
peptide: NERFCEPAWMCHGF
notes: as for B31
B42: Phage-3927 (Peptide-180 library clone) (peptide)
peptide: SMQKCVPSWMCAGF
notes: as for B31
B43: Phage-3937 (Peptide-180 library clone) (peptide)
peptide: LTPVCRPAWMCLEL
notes: as for B31
B44: Phage-3928 (Peptide-180 library clone) (peptide)
peptide: WDLLCSPPWMCAGM
notes: as for B31

target: T1, PSMA Fab (006 PSMA Fab); experiment: clonal phage supernatant on biotinylated PSMA Fab captured on neutravidin plate, anti-M13-HRP detection;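 note: before phage were added, wells received PSMA antigen in blocking buffer or blocking buffer alone, with no wash in between, followed by a short phage incubation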
T1 construct: also called Anti-PSMA Fab
Experimental: (§1) Clonal phage were harvested as crude supernatants and screened via standard ELISAs. […] Prior to the addition of clonal phage. wells were incubated with blocking buffer and PSMA antigen or blocking buffer alone. Without washing or aspirating, clonal phage supernatants were then added to the wells and incubated for a short time. Wells were then washed followed by detection of bound phage using a horse radish conjugated anti-M13 antibody.

Going from B1 to B2, the “Phage binding ELISA signal, Anti-PSMA Fab” value rises from 0.978 to 1.02.

First: B3
Second: B4
The “Phage binding ELISA signal, Anti-PSMA Fab” value of the first is higher: 1.02 for the first, 0.977 for the second.

First: B5
Second: B6
The “Phage binding ELISA signal, Anti-PSMA Fab” value of the first is higher: 0.985 for the first, 0.979 for the second.

First: B7
Second: B8
The “Phage binding ELISA signal, Anti-PSMA Fab” value of the first is higher: 1.01 for the first, 1 for the second.

First: B9
Second: B10
The “Phage binding ELISA signal, Anti-PSMA Fab” value of the first is lower: 0.98 for the first, 1.03 for the second.

First: B11
Second: B12
The “Phage binding ELISA signal, Anti-PSMA Fab” value of the first is lower: 0.993 for the first, 1.02 for the second.

For B13, the “Phage binding ELISA signal, Anti-PSMA Fab” value was 1.02.

target: T2, Anti-PSMA Fab (biotinylated (site not stated)); experiment: clonal phage ELISA on plate-captured biotinylated PSMA Fab, blocking buffer alone
T2 construct: Biotinylated PSMA Fab captured on neutravidin coated plates; also called 006 PSMA Fab

Compared with B14, B15 is lower in “Phage binding ELISA signal, Anti-PSMA Fab” value: 0.854 for the first, 0.838 for the second.

With B16 the “Phage binding ELISA signal, Anti-PSMA Fab” value was 0.864.

target: T3, 006 PSMA Fab; experiment: clonal phage ELISA; biotinylated PSMA Fab captured on neutravidin plate, blocking buffer alone; bound phage detected with anti-M13 HRP
T3 construct: In the phage ELISA the PSMA Fab was biotinylated and captured on neutravidin coated plates; also called Anti-PSMA Fab
Experimental: as §1

First: B17
Second: B18
The “Phage binding ELISA signal, Anti-PSMA Fab” value of the first is lower: 0.882 for the first, 0.895 for the second.

Going from B19 to B20, the “Phage binding ELISA signal, Anti-PSMA Fab” value falls from 0.904 to 0.899.

Compared with B21, B22 is lower in “Phage binding ELISA signal, Anti-PSMA Fab” value: 0.913 for the first, 0.885 for the second.

First: B23
Second: B24
The “Phage binding ELISA signal, Anti-PSMA Fab” value of the first is higher: 0.885 for the first, 0.872 for the second.

First: B25
Second: B26
The “Phage binding ELISA signal, Anti-PSMA Fab” value of the first is higher: 0.912 for the first, 0.871 for the second.

Going from B27 to B28, the “Phage binding ELISA signal, Anti-PSMA Fab” value falls from 0.918 to 0.907.

Compared with B29, B30 is lower in “Phage binding ELISA signal, Anti-PSMA Fab” value: 0.878 for the first, 0.87 for the second.

target: T2, Anti-PSMA Fab; experiment: clonal phage ELISA on plate-captured biotinylated PSMA Fab, wells pre-incubated with PSMA antigen as competitor
Experimental: as §1

First: B14
Second: B15
The “phage binding ELISA signal (Anti-PSMA Fab with PSMA)” value of the first is lower: 0.0548 for the first, 0.0845 for the second.

In the case of B16, the “phage binding ELISA signal (Anti-PSMA Fab with PSMA)” value is reported as 0.056.

target: T3, 006 PSMA Fab; experiment: clonal phage ELISA; biotinylated PSMA Fab captured on neutravidin plate, wells pre-incubated with PSMA antigen as competitor; bound phage detected with anti-M13 HRP
Experimental: as §1

Compared with B17, B18 is lower in “Phage binding ELISA signal, Anti-PSMA Fab with PSMA antigen” value: 0.0749 for the first, 0.063 for the second.

First: B19
Second: B20
The “Phage binding ELISA signal, Anti-PSMA Fab with PSMA antigen” value of the first is lower: 0.0676 for the first, 0.0789 for the second.

Compared with B21, B22 is lower in “Phage binding ELISA signal, Anti-PSMA Fab with PSMA antigen” value: 0.0873 for the first, 0.0544 for the second.

Compared with B23, B24 is higher in “Phage binding ELISA signal, Anti-PSMA Fab with PSMA antigen” value: 0.0614 for the first, 0.0634 for the second.

Going from B25 to B26, the “Phage binding ELISA signal, Anti-PSMA Fab with PSMA antigen” value rises from 0.0699 to 0.0856.

First: B27
Second: B28
The “Phage binding ELISA signal, Anti-PSMA Fab with PSMA antigen” value of the first is lower: 0.0765 for the first, 0.128 for the second.

Going from B29 to B30, the “Phage binding ELISA signal, Anti-PSMA Fab with PSMA antigen” value rises from 0.0698 to 0.0825.

target: T4, PSMA Fab (006 PSMA Fab); experiment: phage binding ELISA; biotinylated PSMA Fab on neutravidin plate, clonal phage supernatant, anti-M13 HRP detection;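 note: wells were preincubated with blocking buffer either containing PSMA antigen or without it before crude phage supernatant was added, briefly incubated, then washed prior to detection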
T4 construct: also called Anti-PSMA Fab; anti-PSMA Fab
Experimental: as §1

Compared with B31, B32 is lower in “Phage binding ELISA signal, Anti-PSMA Fab” value: 0.93 for the first, 0.926 for the second.

Going from B33 to B34, the “Phage binding ELISA signal, Anti-PSMA Fab” value rises from 0.96 to 0.97.

First: B35
Second: B36
The “Phage binding ELISA signal, Anti-PSMA Fab” value of the first is higher: 0.972 for the first, 0.921 for the second.

Compared with B37, B38 is lower in “Phage binding ELISA signal, Anti-PSMA Fab” value: 0.966 for the first, 0.936 for the second.

Going from B39 to B40, the “Phage binding ELISA signal, Anti-PSMA Fab” value falls from 0.97 to 0.965.

First: B41
Second: B42
The “Phage binding ELISA signal, Anti-PSMA Fab” value of the first is higher: 0.977 for the first, 0.972 for the second.

First: B43
Second: B44
The “Phage binding ELISA signal, Anti-PSMA Fab” value of the first is lower: 0.922 for the first, 0.971 for the second.

target: T1, PSMA Fab (006 PSMA Fab); experiment: phage ELISA on captured PSMA Fab pre-incubated with the competitor PSMA antigen, anti-M13-HRP detection
Experimental: as §1

Going from B1 to B2, the “phage binding ELISA signal, Anti-PSMA Fab in the presence of PSMA” value (“phage binding ELISA signal … of PSMA” for short) falls from 0.0779 to 0.0693.

Going from B3 to B4, the “phage binding ELISA signal … of PSMA” value falls from 0.0986 to 0.0796.

First: B5
Second: B6
The “phage binding ELISA signal … of PSMA” value of the first is lower: 0.0618 for the first, 0.0665 for the second.

Compared with B7, B8 is lower in “phage binding ELISA signal … of PSMA” value: 0.0642 for the first, 0.064 for the second.

Compared with B9, B10 is higher in “phage binding ELISA signal … of PSMA” value: 0.0809 for the first, 0.0901 for the second.

First: B11
Second: B12
The “phage binding ELISA signal … of PSMA” value of the first is higher: 0.0911 for the first, 0.0874 for the second.

In the case of B13, the “phage binding ELISA signal … of PSMA” value is reported as 0.0655.

Reference: patent US20260242478A1 (published 2026)
